Test results: patent US20200206312A1
“And” between values parts separate entries of the source, which are not always exact repeats. Identical values can stand only once. Like-named read-outs stand apart in the source and are kept apart here. Bridge positions count the residues as written; N and C are the ends. Ends that are not written are not given here. * marks the point of attachment. Biotin = O=C1N[C@H]2[C@H](CS[C@H]2CCCCC(=O)*)N1; Capped = not defined here

Columns and labels:
[1] = target: T1, Recombinant human NRP1 with His Tag (Sino Biological Inc.; Cat #1001-H08H) (human), O14786
T1 sequence (O14786 other isoform, or with tags, fused parts or gaps H08H H08H limits assumed): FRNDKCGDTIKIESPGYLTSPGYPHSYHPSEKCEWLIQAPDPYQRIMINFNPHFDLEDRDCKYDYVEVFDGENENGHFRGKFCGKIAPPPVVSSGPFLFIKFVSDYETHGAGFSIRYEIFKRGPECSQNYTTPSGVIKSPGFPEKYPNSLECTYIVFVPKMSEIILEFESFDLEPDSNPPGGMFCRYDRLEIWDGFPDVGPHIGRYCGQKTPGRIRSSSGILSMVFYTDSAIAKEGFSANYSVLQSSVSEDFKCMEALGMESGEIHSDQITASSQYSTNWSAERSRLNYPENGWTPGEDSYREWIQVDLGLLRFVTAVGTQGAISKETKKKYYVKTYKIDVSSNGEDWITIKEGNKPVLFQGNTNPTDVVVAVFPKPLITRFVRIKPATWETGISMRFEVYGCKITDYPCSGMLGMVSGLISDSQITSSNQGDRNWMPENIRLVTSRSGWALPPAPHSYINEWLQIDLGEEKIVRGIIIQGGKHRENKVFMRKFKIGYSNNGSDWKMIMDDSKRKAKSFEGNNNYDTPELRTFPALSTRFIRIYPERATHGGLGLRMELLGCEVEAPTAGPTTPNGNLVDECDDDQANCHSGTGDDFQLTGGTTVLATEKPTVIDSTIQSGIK

[2] = target: T1, Recombinant human NRP1 with His Tag …; remark: listed apart in the source
[3] = target: T1, Recombinant human NRP1 with His Tag …; remark: listed apart in the source
[4] = target: T1, Recombinant human NRP1 with His Tag …; test: BLI (Octet Red96), biotinylated peptide on streptavidin sensor, NRP1 in solution

B1: NH2(Biotin)-C(Capped)-Y-G-P-Q-C(Capped)-L-C(Capped)-R-COOH (peptide)
peptide: Biotin-C(Capped)YGPQC(Capped)LC(Capped)R-OH
modifications: reading uncertain; also: printed as NH2(Biotin)-C(Capped)-Y-G-P-Q-C(Capped)-L-C(Capped)-R-COOH
With B1 the Kd [1] was 153 nM and 335 nM.

B2: tri-peptide 1/2/3 from trypsin digestion of Lys-27 biotinylated TM601 (UM-1438-118) (peptide)
chain 1: MCMPCFTTDHQMAR
chain 2: GKCYGPQCLCR
chain 3: KCDDCCGGK
modifications: not fully specified; modifications not checked
In the case of B2, the Kd [2] is reported as 112 nM and 187 nM.

B3: NH2(Biotin)-Y-G-P-Q-C(Capped)-L-C(Capped)-R-COOH (peptide)
peptide: Biotin-YGPQC(Capped)LC(Capped)R-OH
modifications: reading uncertain; also: printed as NH2(Biotin)-Y-G-P-Q-C(Capped)-L-C(Capped)-R-COOH
In the case of B3, the Kd [3] is reported as 300 nM and 294 nM.

In the case of Biotin-CYGPQCLC(Capped)R-OH (disulfide 1-6; reading uncertain) [NH2(Biotin)-C-Y-G-P-Q-C-L-C(Capped)-R-COOH with S-S between the first two C], the Kd [3] is reported as 410 nM.

B4: tri-peptide 1/2/3 from trypsin digestion of N-terminal biotinylated TM601 (UM-1438-127-1) (peptide)
chain 1: MCMPCFTTDHQMAR
chain 2: CYGPQCLCR
chain 3: KCDDCCGGK
modifications: not fully specified (N-terminus); cysteine pairing not given here
B4 was tested, and the Kd [2] was 173 nM and 70 nM.

In the case of Biotin-C(Capped)LC(Capped)R-OH (reading uncertain; also: printed as NH2(Biotin)-C(Capped)-L-C(Capped)-R-COOH) [NH2(Biotin)-C(Capped)-L-C(Capped)-R-COOH], the Kd [4] is reported as 335 nM.
